Laboratory results published in publication PMC6910952 (Nature Communications, 2019).
No end group written: not given here.

Key:
Assay in all cases: fluorescence polarisation; fluorescence anisotropy; 1 nM FlAsH-labeled His6-SUMO-yUfd1 peptide, His6-yNpl4^113–580 in two-fold dilution series; 25 °C; 50 mM Tris-HCl pH 8.0, 100 mM NaCl, 5 mM β-mercaptoethanol, 0.1 g/L BSA
Details in all cases: both partners purified
[1] = target: T1, His6-yNpl4^113–580 L353A (Saccharomyces cerevisiae, UniProt P33755 113-580, L353A)
T1 construct: also called yNpl4 L353A; source: E. coli Rosetta (DE3), purified (Ni-NTA, Resource Q); not shown: His6, N-terminal, kept
T1 sequence (looked up): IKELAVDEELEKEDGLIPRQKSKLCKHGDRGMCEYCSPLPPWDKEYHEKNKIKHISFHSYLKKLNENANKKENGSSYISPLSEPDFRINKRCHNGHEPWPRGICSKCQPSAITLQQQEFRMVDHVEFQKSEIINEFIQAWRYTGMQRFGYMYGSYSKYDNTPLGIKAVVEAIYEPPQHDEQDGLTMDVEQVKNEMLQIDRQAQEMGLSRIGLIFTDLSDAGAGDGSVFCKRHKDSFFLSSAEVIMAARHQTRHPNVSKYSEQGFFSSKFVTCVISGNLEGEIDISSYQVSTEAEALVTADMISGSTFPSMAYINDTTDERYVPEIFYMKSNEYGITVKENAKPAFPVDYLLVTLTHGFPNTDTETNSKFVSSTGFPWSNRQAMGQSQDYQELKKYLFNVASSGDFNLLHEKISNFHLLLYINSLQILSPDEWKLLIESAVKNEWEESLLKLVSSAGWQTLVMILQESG

[2] = target: T2, His6-yNpl4^113–580 F326A (Saccharomyces cerevisiae, UniProt P33755 113-580, F326A)
T2 construct: also called yNpl4 F326A; source: E. coli Rosetta (DE3), purified (Ni-NTA, Resource Q); not shown: His6, N-terminal, kept
T2 sequence (looked up): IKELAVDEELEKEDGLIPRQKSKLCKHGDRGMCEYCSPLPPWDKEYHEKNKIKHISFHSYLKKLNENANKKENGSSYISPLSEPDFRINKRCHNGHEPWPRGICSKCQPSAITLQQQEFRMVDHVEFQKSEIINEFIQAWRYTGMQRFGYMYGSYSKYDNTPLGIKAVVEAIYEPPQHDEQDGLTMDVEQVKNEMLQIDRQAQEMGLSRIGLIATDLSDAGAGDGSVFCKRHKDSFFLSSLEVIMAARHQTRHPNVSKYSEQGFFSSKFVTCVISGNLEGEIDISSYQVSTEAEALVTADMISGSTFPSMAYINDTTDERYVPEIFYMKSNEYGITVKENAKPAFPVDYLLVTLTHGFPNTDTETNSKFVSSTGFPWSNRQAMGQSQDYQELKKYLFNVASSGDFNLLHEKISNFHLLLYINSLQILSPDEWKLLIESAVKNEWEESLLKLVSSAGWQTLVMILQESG

[3] = target: T3, His6-yNpl4^113–580 M357A (Saccharomyces cerevisiae, UniProt P33755 113-580, M357A)
T3 construct: also called yNpl4 M357A; source: E. coli Rosetta (DE3), purified (Ni-NTA, Resource Q); not shown: His6, N-terminal, kept
T3 sequence (looked up): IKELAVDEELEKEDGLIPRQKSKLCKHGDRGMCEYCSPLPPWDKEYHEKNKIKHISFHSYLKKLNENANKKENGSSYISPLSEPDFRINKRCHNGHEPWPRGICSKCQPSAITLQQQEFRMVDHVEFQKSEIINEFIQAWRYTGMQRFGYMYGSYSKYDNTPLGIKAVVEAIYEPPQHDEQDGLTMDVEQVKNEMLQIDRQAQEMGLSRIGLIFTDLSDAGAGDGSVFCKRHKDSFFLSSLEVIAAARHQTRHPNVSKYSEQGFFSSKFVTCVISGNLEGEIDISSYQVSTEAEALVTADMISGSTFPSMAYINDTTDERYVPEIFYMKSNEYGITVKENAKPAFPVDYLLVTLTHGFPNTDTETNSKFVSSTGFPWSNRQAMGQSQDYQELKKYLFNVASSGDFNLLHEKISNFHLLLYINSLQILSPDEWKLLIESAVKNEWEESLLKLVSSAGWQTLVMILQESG

[4] = target: T4, His6-yNpl4^113–580 R364A (Saccharomyces cerevisiae, UniProt P33755 113-580, R364A)
T4 construct: also called yNpl4 R364A; source: E. coli Rosetta (DE3), purified (Ni-NTA, Resource Q); not shown: His6, N-terminal, kept
T4 sequence (looked up): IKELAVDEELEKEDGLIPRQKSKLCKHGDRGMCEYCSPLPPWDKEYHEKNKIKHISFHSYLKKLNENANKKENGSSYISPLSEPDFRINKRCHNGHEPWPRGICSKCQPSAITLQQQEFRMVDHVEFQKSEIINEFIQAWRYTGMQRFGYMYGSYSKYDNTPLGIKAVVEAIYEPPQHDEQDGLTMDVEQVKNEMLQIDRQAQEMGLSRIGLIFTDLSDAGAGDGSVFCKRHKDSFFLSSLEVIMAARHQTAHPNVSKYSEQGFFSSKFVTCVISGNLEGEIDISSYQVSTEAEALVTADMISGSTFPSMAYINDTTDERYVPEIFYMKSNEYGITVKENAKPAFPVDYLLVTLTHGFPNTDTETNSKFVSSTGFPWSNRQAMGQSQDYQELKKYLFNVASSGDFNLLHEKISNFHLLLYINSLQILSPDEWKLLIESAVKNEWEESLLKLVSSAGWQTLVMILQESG

B1: FlAsH-labeled His6-SUMO-yUfd1^288–305-GWCCPGCC (peptide, UniProt P53044 288-305, looked up)
chain: {His6-SUMO}-EPAKLDLPEGQLFFGFPMGWCCPGCC
modifications: cysteine pairing not given here; also: FlAsH label bound to CCPGCC motif
notes: the assay methods print 280-305; also called yUfd1-FlAsH; yUfd1 WT; source: E. coli Rosetta (DE3) (pCold-SUMO), purified (Ni-NTA, Resource Q), labeled with FlAsH-EDT2; not shown: His6, N-terminal, kept; SUMO, N-terminal, kept
- Kd [1]: 1380 nM
- Kd [2]: 257 nM
- Kd [3]: 164 nM
- Kd [4]: 314 nM
